Legend:
[1] = molecular target: GST-Crkl (SH3) (UniProt P46109)
[2] = tested on: GST-EEEIYGEFE (SEQ. ID. NO: 1) fusion protein

Chain of GST-Crkl (SH3) (P46109 120-303): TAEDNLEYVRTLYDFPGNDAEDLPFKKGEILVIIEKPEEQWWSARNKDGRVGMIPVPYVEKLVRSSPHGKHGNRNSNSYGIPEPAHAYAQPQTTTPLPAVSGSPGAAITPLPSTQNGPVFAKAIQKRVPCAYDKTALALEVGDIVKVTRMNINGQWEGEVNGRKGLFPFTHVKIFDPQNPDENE

Substance | Crkl phosphorylation in pure HL60 lysate (Bcr-Abl-) relative to pure K562 lysate (Bcr-Abl+) [1] | Km of phosphorylation, substrate in solution (Lineweaver-Burk) [2] | Km of phosphorylation, surface-immobilized substrate (Lineweaver-Burk) [2] | Vmax of phosphorylation, substrate in solution (Lineweaver-Burk) [2] | Vmax of phosphorylation, surface-immobilized substrate (Lineweaver-Burk) [2]
Bcr-Abl tyrosine kinase in K562 cell lysate | the level of Crkl phosphorylation in the pure HL60 cell lysate is only 3.5% of that observed in the pure K562 cell lysate |  |  |  | 
protein-tyrosine kinase p60^c-src (Calbiochem) |  | Km=2.7±1.0 µM | Km=0.36±0.033 µM | Vmax=8.1±3.1 (arbitrary units) | Vmax=9.7±0.63 (arbitrary units)
